± gives the uncertainty stated by the source.
assay: amyloid nucleation score (Sup35N fusion, yeast selection) (log enrichment); library NNK3; higher = more nucleation; inactive = no reads after selection
Outline: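 Growth for 7 days at 30°C on medium lacking adenine and uracil followed a 24-hour induction with 100 μM copper sulfate of psi-negative yeast expressing peptides of 20 random codons fused to Sup35N. Input and output plasmid inserts were sequenced with Illumina, and sequences with under 100 input reads were excluded. Nucleation score is the DiMSum log enrichment of output over input reads, centred on the mode score of non-aggregating sequences.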

Substance	amyloid nucleation score
RLFMGRS	inactive
DMIESSKRFFGSARIVLPEM	inactive
NVLYLQLRPMNLCEANSEIG	inactive
WVTIESNLCIVSFNRSRSQK	2.66 ± 0.075
GLVWVN	inactive
GRNRHTYDRLYCPFVRSLIV	inactive
RAALLGVSADFTKHTTRVWE	inactive
KDFIMHNILYMRRWAFTPLA	inactive
QRNSCLDFMK	inactive
YDDVVVI	inactive
STRRILCIP	-0.381 ± 0.8
MLSWLYTSGRSRYVILLQP	inactive
NWNIGPRKLCKWRCR	inactive
RFYGYTLY	inactive
YTIMRNYGFLGARISRGSGS	inactive
GLVHCNGSPAQITFKDTFNR	inactive
FGLTTRRRPRNVW	inactive
TESCVDSMVAFHNLPYLFRL	inactive
VVRFFLRTRTEGGYTWVLK	inactive
GLCNNHIGKIFTYWNTPLDY	inactive
NRMQVMLSVVRSSLFVWMQW	inactive
TWINFFGTYILWPNFNYSTR	2.66 ± 0.064
RYSESLMFRFKWDDYYRGRV	-0.307 ± 0.88

Substance	amyloid nucleation score
VSMVPRNIWCEMFCQTHADI	1.26 ± 0.1
KCIQWTGRDAYFEICYKQLD	1.12 ± 0.11
RKEVEGGVPALYDDMRIFES	inactive
RRLHSIAFVHRCLIIICCMG	inactive
KASHWV	inactive
RRKLTAMVNTGEWMSQDDGS	inactive
RLRLYFRLTKNFHSMNHW	inactive
TSTYANKALTVLE	inactive
QLMDLTGFRRSSVYVLVCDF	inactive
IAPVFWITLYHNFTSRIDRF	1.44 ± 0.14
GSKYMQRHLNTI	inactive
WFYMSRDGYEAVKRLTKLGK	inactive
YFSFFQRVLWYRCAASFNLQ	-0.106 ± 0.63
TNMHYMSHYLETTPFTTGMV	inactive
RLHRLKDFTRNGCEYSSHLS	inactive
TKTISGHCPVLMSVFWSMAL	inactive
LRYLIYTNYFRLFAWLNSCK	inactive
LGMIHFVFMYFETYCYTYTI	inactive
RLWLRKT	inactive
FHIRHEGMLFQWGHEALAVK	inactive
MVDSRLNSSLNYSLCLSDVK	inactive
QLHVMNVYFFWKDSSALMRA	inactive
CGSVSSI	inactive

Substance	amyloid nucleation score
GKSTVGMI	inactive
QNRLQTSFMVGQRGNTLVTN	inactive
VGMRNTSLRCLVLIG	inactive
YMGYWFKFFTFSGDQVTIGR	0.718 ± 0.14
DCNSVFVLRVFNSVLFGIKD	inactive
AFINMMWNSTMDLCRPFLPT	0.698 ± 0.27
IAMWDAMCFYWKIMSGSIMV	inactive
SITWET	inactive
NESISPFVTKRHPEFMRFNC	inactive
RSEWQMTRNYRVWGCYI	inactive
LFLISG	inactive
RRKWHEYSVVMSRTNHMCIW	-0.118 ± 0.58
MLSDSLHHSSNIVTLVTRGS	inactive
GPCFEVAVYYDATEMGKQSI	-0.507 ± 1.1
HLPWFRVGATDMLSYTKSLG	inactive
RYSRSKIG	inactive
LDPEP	inactive
MLNLRCSKCGMMPLRNRIVS	inactive
CRMERGRFRLLKTQ	inactive
SMASGRSALIKVV	inactive
SSNLFVHHTSFTWASSTPHR	inactive
CVVCCG	inactive
LLMGFWIWFINGVCNVRTDS	inactive

Substance	amyloid nucleation score
KTISC	inactive
PPRSSLFTFNIFKYNNLYNA	2.72 ± 0.066
GSVTGAFERYVKKEA	inactive
ITVIGQLIALKQFSTLTRSI	inactive
HNSYRED	inactive
FVHQRYRAQIIRLLPTSWGC	inactive
PVHSFNLAIYMRLFHVWPVF	inactive
WLSYLLNG	1.91 ± 0.096
SRRSCYVIAYELV	inactive
LNPVKKLLGRLSGSREG	inactive
RCWILISANHQKDFVSHIFY	0.627 ± 0.36
NIVAVRCWFLDFPQDD	inactive
CRLVINNYMSR	2.83 ± 0.065
YYVSRVSKMCWLRDVRWISI	inactive
VMMFSELGCCVLCGPLKDNM	1.62 ± 0.06
VRNWTDD	inactive
NYYINKSMVRSRWFCCLPLW	2.34 ± 0.067
VVEIMDLS	inactive
FCSPSFYFGADGDTT	1.99 ± 0.058
HSSIVWKRYSIYFVKNGGTF	inactive
FNVANIRSRFFHFTYSRKVS	inactive
CHFPG	inactive
TWSWVVAASVKLISFKL	inactive

Substance	amyloid nucleation score
LLYYFYTFTQGR	-0.148 ± 0.43
VFTWILSDSHTSMWFRCQGG	inactive
ALSHITDLQFLYSIVFQAHM	-0.674 ± 1.3
TFALFLGWIMPTSGGDTGYY	0.037 ± 0.39
DSLSDLLYSFKFKG	inactive
PFENHSYVCSGSRYNGTLWE	inactive
RERPRD	inactive
FGVFGEIDIYCGW	inactive
MCMYVKMYLNGSLFVYMTSK	inactive
WLWDVDDYGNPLWVRHASVA	inactive
SYRAARNFHMFLLYWHGTRW	inactive
SEPLYSVVLSDMDELWHCL	inactive
NLDQHCRCVIGFAITYYVGY	inactive
FLPRFGNHLTIRQKVRRTSG	inactive
SRVWTISWLNDGVGGRTQAE	inactive
TTRLNFENVNVTLLNYKSMG	1.19 ± 0.069
GACRCNCSSSDDPQNKRNML	inactive
VTLADEDGYKFLTLVKVLTY	inactive
LYQRYMDMTSYCS	inactive
LGIIH	inactive
SGLACRYCTMVGCNLNYNYW	2.58 ± 0.055
RVMMSAACHLILCWNWPKWK	inactive
RSRILMYYYKISLFYRIKVM	inactive

Substance	amyloid nucleation score
SQFLLGSQ	inactive
EYSFSLWSVSPAYTHITYGG	-0.192 ± 0.71
ISRFCYSSINRRGFLGNFVF	inactive
CGVSWTVSIITDTFICN	2.76 ± 0.06
WLSFFRWR	inactive
TQPDLV	inactive
GNFMNNGRLVASPLLREVCC	inactive
SAQPESY	inactive
EIVYCPWLQSWRA	inactive
GSLCFGLDSSPSTKIYLYDS	inactive
SKTFNDPFLLNHLNTFIKPR	-0.259 ± 0.93
MVFMADK	0.268 ± 0.2
FKTCLGPQSTLVKGEVESHT	inactive
TDRFNAFSWAVASGFVDFDG	inactive
TNSGGFRMVIYFFR	inactive
VYSGESNQIYIMNWPVTSKQ	0.062 ± 0.59
AEVHDDHPMGSDAHIYGTGG	inactive
YGSMMHWKSLCLSSIC	inactive
YRGLGRDSHTHCRNHVLLTL	inactive
YISSFRGDIVIY	inactive
DNLGLFSVVKRSPMLSVTKE	inactive
ITVVQANMSVWSTARVDMLD	1.12 ± 0.16
WNMIFTQPNNQPIVVRDFVD	inactive

Substance	amyloid nucleation score
CDRLYSNLLRVAAMAPKASW	inactive
TDFPYK	-0.12 ± 0.53
YHRTFWSFGSKVFLRVNWCR	inactive
ECEWDMVH	inactive
LKCDWC	inactive
WSGCMWSCARGYGSFPSGPL	inactive
SVSLAHFGSRKLVFSG	inactive
SKVMVHVIWEIVILFMKSKI	inactive
VVFGHAFYVTSHKTVLCSFG	inactive
IYLASSLNRILISEQSILPG	inactive
RVFYCNL	1.6 ± 0.059
RKLFFEFFFCDSVH	inactive
NMFVILRFVMHKIKMFNRF	1.51 ± 0.079
FYSWDIHGCIVHSIYV	inactive
FRYVWFCYCMNVERVENVRL	inactive
GVNCLSLGSKIICGSTGWFL	2.47 ± 0.087
YDTAVYIIELGCNDNKSWVR	inactive
IQSYK	inactive
GYVSALMMIFYYHLWKKGPC	inactive
LVVKFSLDKWPRQNVSSLAS	inactive
RTTAK	inactive
RVSGEMFASSL	inactive

— the supplement of paper PMC12042874
